# Key:
# [1] = molecular target: T1, human alpha-thrombin (THR) (Homo sapiens) (UniProt P00734+P00734); test: back-scattering interferometry; settings: 5' amino modifier C6 as ordered; 20 mM Tris-HCl pH 7.4, 1 mM MgCl2, 120 mM NaCl, 10 mM KCl; thrombin co-injected with 500 nM cytochrome c; binding temperature not stated; cited from earlier work
# [2] = molecular target: T1, human alpha-thrombin (THR) (Homo sapiens); test: competition (SPRi, free thrombin quantification); settings: 5' amino modifier C6 as ordered; 20 mM Tris-HCl pH 7.4, 1 mM MgCl2, 120 mM NaCl, 10 mM KCl; thrombin co-injected with 500 nM cytochrome c; binding temperature not stated
sequence,measurement,setting,value
"TTTTTTTTTTAGTCCGTGGTAGGGGAGGTTGGGGTGACT [APT (anti-thrombin aptamer), solution competitor]",Kd,[1],3.84 nM
same,Kd,[2],3.16 nM

# From article PMC3775802
